The values that follow come from the supplement of paper PMC10724198.

± gives the standard deviation of the averaged measurements.

The subject of data set [1] is Saccharomyces cerevisiae. The data set can be described thus: protein stability index of tFT-peptide fusion in wild type (PSI (0-1 scale)); higher = more stable (slower turnover). To be noted: genetic background: wild type. How it is done: (§1)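 MPS profiling in S. cerevisiae of two library types built from selected 12-aa C-degron peptides (IN1, IN2, LN1, LN3, VN2, R1-R5, W1-W3, Atg1 and Rpa12 C-termini): saturation mutagenesis libraries and C-terminal +1 capping libraries (13 aa). Each peptide is fused to the C-terminus of a sfGFP-mCherry timer, after a GGGS linker. Cells are FACS-sorted into 8 mCherry/sfGFP bins and sequenced. PSI runs from 0 (unstable) to 1 (stable), measured once in wild type and in the das1Δ or doa10Δ background.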

For data set [2], the system named is Saccharomyces cerevisiae. The data set can be described thus: protein stability index of tFT-peptide fusion in deletion strain of DAS1 (PSI (0-1 scale)); higher = more stable (slower turnover). How it is done: as §1
For data set [3], the system named is Saccharomyces cerevisiae. In words: protein stability index of tFT-peptide fusion (C-terminal peptide) (PSI (0-1 scale)); higher = more stable (slower turnover). The conditions noted are these: temperature: 30 C. How it is done:
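MPS profiling in S. cerevisiae of the yeast C-terminome library: the last 12 aa of each annotated ORF are fused to the C-terminus of a sfGFP-mCherry timer, after a GGGS linker. Cells are FACS-sorted into 8 mCherry/sfGFP bins and deep-sequenced. PSI runs from 0 (unstable) to 1 (stable); wild type and das1Δ backgrounds, two technical replicates each.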

The mark [4] stands for this setting: genetic background: das1 deletion.
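Throughout, for protein stability index of tFT-peptide fusion in deletion strain of DAS1: PSI is a weighted mean of each variant's read distribution over the sorted stability bins, computed only for variants having over 10 reads in total.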
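Throughout, for protein stability index of tFT-peptide fusion in wild type: PSI derived as read-weighted mean over the 8 sorting bins, only variants exceeding 10 total reads kept, mCherry placed adjacent to the peptide and sfGFP distal.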

Regarding CTSCGYTFRTNN, the protein stability index worked out at 0.245 in data set [1] and 0.708 in data set [2].
The corresponding values for CTSCIYKFRTNN are 0.163 and 0.666.
With CTSCPYKFRTNN, the protein stability index in data set [1] came out at 0.261; in data set [2] it was 0.666.
For CTSYGYKFRTNN the same measures were 0.145 and 0.688.
For EKHKKGQKQKIN the same measures were 0.178 and 0.613.
Regarding FKMRWTFRYWVN, the protein stability index in data set [1] is 0.119; in data set [2], 0.735.
Regarding FLMRWTFRYWVN, the protein stability index in data set [1] was 0.0449; in data set [2], 0.342.
Turning to FPMRWTFRYWVN, the protein stability index was found to be 0.062 in data set [1] and 0.574 in data set [2].
On to FSHRWTFRYWVN, for which the protein stability index in data set [1] worked out at 0.0512; in data set [2] it was 0.568.
FSLAASFWRVVG: the protein stability index in data set [1] stood at 0.121; in data set [2], 0.671.
With FSMNWTFRYWVN, the results for the protein stability index in data set [1] and in data set [2] were 0.0654 and 0.496, respectively.
As for FSMQWTFRYWVN, the protein stability index in data set [1] worked out at 0.0371; in data set [2] it was 0.466.
For the sequence FSMRMTFRYWVN, the protein stability index in data set [1] is 0.0474; in data set [2] it was 0.464.
Turning to FSMRWTFGYWVN, the protein stability index in data set [1] was 0.0637; in data set [2], 0.404.
For the sequence FSMRWTFMYWVN, the figures for the protein stability index in data set [1] and in data set [2] were 0.0968 and 0.456, respectively.
In the case of FSMRWTFQYWVN, the results for the protein stability index in data set [1] and in data set [2] were 0.0522 and 0.502, respectively.
FSMRWTFRLWVN: the protein stability index in data set [1] was determined as 0.028; in data set [2], 0.291.
With FSMRWTFRNWVN, the protein stability index is 0.0567 in data set [1] and 0.589 in data set [2].
FSMRWTFRYAVN: the figures for the protein stability index in data set [1] and in data set [2] were 0.158 and 0.585, respectively.
For FSMRWTFRYWVNA the same measures were 0.163 and 0.496.
On to FSMRWTFVYWVN, for which the protein stability index was determined as 0.0513 in data set [1] and 0.327 in data set [2].
FSMRWTKRYWVN: the protein stability index in data set [1] stood at 0.0745; in data set [2] it was 0.545.
For FSMRWVFRYWVN the same measures were 0.077 and 0.495.
On to FSMVWTFRYWVN, for which the results for the protein stability index in data set [1] and in data set [2] were 0.0843 and 0.314, respectively.
Consider FSQRWTFRYWVN, for which the protein stability index was determined as 0.0417 in data set [1] and 0.563 in data set [2].
Take GKILRQKMNHQN: the protein stability index in data set [1] is 0.263; in data set [2], 0.677.
Consider HRWRVGLWRGAS, for which the protein stability index was 0.457 in data set [1] and 0.676 in data set [2].
As for IRWRVGLWRGAS, the figures for the protein stability index in data set [1] and in data set [2] were 0.163 and 0.707, respectively.
KGHKKGQKQKIN: the values for the protein stability index in data set [1] and in data set [2] were 0.108 and 0.57, respectively.
With KKAKKGQKQKIN, the protein stability index in data set [1] is 0.106; in data set [2], 0.624.
For KKHDKGQKQKIN the same measures were 0.0762 and 0.587.
In the case of KKHKGGQKQKIN, the protein stability index worked out at 0.0809 in data set [1] and 0.584 in data set [2].
As to KKHKKGQKDKIN, the protein stability index in data set [1] worked out at 0.652; in data set [2] it was 0.63.
Regarding KKHKKGQKQKGN, the protein stability index in data set [1] worked out at 0.61; in data set [2], 0.616.
The corresponding values for KKHKKGQKQKINI are 0.649 and 0.661.
In the case of KKHKKGQKQKINV, the results for the protein stability index in data set [1] and in data set [2] were 0.647 and 0.657, respectively.
For KKHKKGQKQKINY the same measures were 0.643 and 0.663.
For KKHKKGQKQKIR the same measures were 0.676 and 0.595.
In the case of KKHKKGQKQKVN, the protein stability index is 0.208 in data set [1] and 0.599 in data set [2].
Turning to KKHKKGQKQKWN, the protein stability index in data set [1] is 0.305; in data set [2], 0.587.
Take YVSHKGFIVEDM [RPL9B C-terminal 12 aa]: the values for the protein stability index in data set [3] (setting [4]) and in data set [3] (genetic background: wild type) were 0.695 ± 0.0088 and 0.6932 ± 0.006, respectively.
On to YWRKQYPDADIP [YCR007C C-terminal 12 aa], for which the protein stability index amounted to 0.71925 ± 0.00051 in data set [3] (setting [4]) and 0.747 ± 0.025 in data set [3] (genetic background: wild type).
